Experimental data: US20200332015A1 (NAMAB THERAPEUTICS, published 2020)

Tests used:
[1] = target: T1, human CD137 expressed on Jurkat cells (human, UniProt Q07011 24-255); experiment: flow cytometry on CD137 expressing Jurkat cells
T1 construct: Also used here for CD137 on T cells of human PBMC in the IL-2 assays; also called Jurkat CD137 cells (clone C6, 1); membranous CD137
Experimental: (§1) Binding potency affinity to human CD137 expressing cells was also determined for selected scFvs. 50,000 CD137 expressing Jurkat cells (or as reference cell line Jurkat NFAT) were distributed to round bottom non-tissue culture treated 96 well plates. Cells were washed twice with 100 μl PBS by centrifugation at 400×g for 5 min. […] After 1 h incubation at 4° C. on a nutating mixer, cells were washed 3 times with 100 μl staining buffer and centrifugation steps of 5 min at 400×g. […] Plates were incubated 1 h at 4° C. on a nutating mixer, then washed 3 times with 100 μl of staining buffer and resuspended in a final volume of 50 μl of staining buffer. Finally, APC signal of 20,000 events per well was analyzed by flow cytometry using a Novocyte flow cytometer system (ACEA Bioscience).

[2] = target: T2, human Fc-tagged CD40 (AcroBiosystems, cat. CDO-H5253) (human, UniProt P25942 21-193); experiment: SPR T200, Fc-tagged CD40 captured, scFv analyte
T2 construct: also called human CD40
T2 sequence (P25942 21-193 limits assumed): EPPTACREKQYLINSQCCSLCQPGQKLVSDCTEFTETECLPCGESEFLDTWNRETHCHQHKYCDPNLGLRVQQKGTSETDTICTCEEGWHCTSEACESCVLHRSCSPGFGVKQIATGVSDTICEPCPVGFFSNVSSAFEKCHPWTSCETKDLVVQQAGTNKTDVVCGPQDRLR
Experimental: (§2) In addition to cross-reactivity to cynomolgus monkey CD137, selectivity of binding of the anti-human CD137 scFvs to human CD137 and not to other members of the TNFR superfamily, such as CD40 and OX40, is desired. Therefore, binding of selected scFvs to human CD40 and OX40 was tested. Binding of scFvs to human Fc-tagged CD40 (AcroBiosystems, cat. CDO-H5253) and human Fc-tagged OX40 (Acro-Biosystems, cat. OXO-H5255) was determined by SPR analysis on a T200 device (Biacore, GE Healthcare). In this experiment, Fc-tagged CD40 and OX40 were captured using the Human Antibody Capture kit from GE healthcare (cat. BR-1008-39). After each analyte injection cycle, the anti-human Fc-specific IgG was regenerated and new antigen was captured. The scFvs were injected as analyte using a high concentration of 180 nM of the analyte diluted in running buffer. Association and dissociation time were set to 300 s and 720 s, respectively. Obtained sensorgrams were fitted using the 1:1 binding model.

[3] = target: T3, human Fc-tagged OX40 (Acro-Biosystems, cat. OXO-H5255) (human, UniProt P43489 29-216, limits assumed); experiment: SPR T200, Fc-tagged OX40 captured, scFv analyte
T3 construct: also called human OX40
T3 sequence (looked up): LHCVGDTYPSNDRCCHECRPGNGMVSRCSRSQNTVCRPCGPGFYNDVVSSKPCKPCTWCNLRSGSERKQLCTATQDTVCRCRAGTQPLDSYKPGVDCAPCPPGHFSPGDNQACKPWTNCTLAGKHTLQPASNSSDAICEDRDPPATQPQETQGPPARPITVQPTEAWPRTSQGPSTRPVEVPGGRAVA
Experimental: as §2

[4] = target: T4, Fc tagged human CD137 (R&D Systems, cat. 838-4B-100) (human, UniProt Q07011 24-186); experiment: SPR T200, Fc-tagged antigen captured, scFv analyte
T4 construct: also called CD137 Fc chimera; human CD137-Fc chimeric protein
Experimental: (§3) Affinity of the humanized scFvs to human CD137 was determined by SPR analysis on a T200 device (Biacore, GE Healthcare). […] After each analyte injection cycle, the anti-human Fc-specific IgG was regenerated and new antigen was captured. The scFvs were injected as analyte using a dose response multi-cycle kinetic assay over the captured CD137 with concentrations of the analyte ranging from 0.19 to 45 nM (three-fold dilutions steps) diluted in running buffer. Association and dissociation time were set to 300 s and 720 s, respectively. Obtained sensorgrams were fitted using the 1:1 binding model.

[5] = target: T5, cynomolgus monkey Fc-tagged CD137 (R&D Systems, cat. 9324-4B-100) (cynomolgus monkey, UniProt A9YYE7 24-186); experiment: SPR T200, Fc-tagged antigen captured, scFv analyte
T5 construct: also called cynomolgus CD137-Fc chimeric protein
T5 sequence (A9YYE7 entry or part of it): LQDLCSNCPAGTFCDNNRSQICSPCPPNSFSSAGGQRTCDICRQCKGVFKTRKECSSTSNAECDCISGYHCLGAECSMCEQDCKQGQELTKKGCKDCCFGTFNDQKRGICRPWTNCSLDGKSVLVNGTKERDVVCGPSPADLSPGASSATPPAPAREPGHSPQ
Experimental: as §3
Cross-reactivity to cynomolgus CD137 was measured with cynomolgus monkey Fc-tagged CD137 (R&D Systems, cat. 9324-4B-100) in a similar assay as used to measure binding to human CD137.

[6] = target: T6, mouse Fc-tagged mouse CD137 (R&D Systems, cat. 937-4B-050) (mouse, UniProt P20334 24-187); experiment: SPR T200, Fc-tagged antigen captured, scFv analyte
T6 construct: also called mouse CD137-Fc chimeric protein
T6 sequence (looked up): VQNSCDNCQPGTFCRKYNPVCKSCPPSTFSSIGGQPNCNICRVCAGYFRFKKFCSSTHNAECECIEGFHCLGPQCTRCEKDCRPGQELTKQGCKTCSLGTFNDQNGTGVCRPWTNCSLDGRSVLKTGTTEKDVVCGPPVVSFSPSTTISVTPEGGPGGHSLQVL

[7] = target: T1, human CD137 expressed on Jurkat cells; experiment: flow cytometry on CD137 expressing Jurkat cells, protein L-APC
Experimental: as §1

Maximum binding (relative to urelumab) [1]: 10%
rel. EC50 (EC50, urelumab/EC50, scFv) [1]: 0.057 ratio
binding result [2]: no binding (tested: 180 nM)
binding result [3]: no binding (tested: 180 nM)
Kd [4]: 1.47 nM
koff [4]: 0.00103 s⁻¹
kon [4]: 701000 M⁻¹ s⁻¹
Kd [5]: 1.47 nM
koff [5]: 0.00102 s⁻¹
kon [5]: 695000 M⁻¹ s⁻¹
binding result [6]: no binding
EC50 [7]: 1.1 µg/mL
B1: PRO1352 (38-02-A04 sc13, CDR graft with interdomain disulfide, VH3, scFv) (scFv)
scFv: DIQMTQSPSSLSASVGDRVTITCQASQSINNVLAWYQQKPGKAPKLLIYRASTLASGVPSRFSGSGSGTDFTLTISSLQPEDFATYYCQSSYGNYGDFGCGTKVTVLGGGGGSGGGGSGGGGSGGGGSEVQLVESGGGLVQPGGSLRLSCAASGFSFSNSYWICWVRQAPGKCLEWIGCTFVGSSDSTYYANWAKGRFTISRDNSKNTVYLQMNSLRAEDTAVYYCARHPSDAVYGYANNLWGQGTLVTVSS
notes: VL-linker-VH; carries VH G51C and VL T141C (AHo numbering); also called the scFv based on 38-02-A04 clone
